This note sets out measurements from paper PMC10723112 (Nature chemical biology, 2023).

Non-standard residues stand in square brackets, D forms with d. No end group written: not given here. pY = N[C@@H](Cc1ccc(OP(=O)(O)O)cc1)C(=O)O A value given as a limit tells only on which side of the number the result lay.

The target in experiment [1] is 5-FAM-SMG9 peptide (human) (UniProt Q9H0W8). The experiment in a line: fluorescence polarisation.
Experiment [2] has as its target T1, OGT (Homo sapiens, UniProt O15294).
T1 sequence (O15294 1-1046): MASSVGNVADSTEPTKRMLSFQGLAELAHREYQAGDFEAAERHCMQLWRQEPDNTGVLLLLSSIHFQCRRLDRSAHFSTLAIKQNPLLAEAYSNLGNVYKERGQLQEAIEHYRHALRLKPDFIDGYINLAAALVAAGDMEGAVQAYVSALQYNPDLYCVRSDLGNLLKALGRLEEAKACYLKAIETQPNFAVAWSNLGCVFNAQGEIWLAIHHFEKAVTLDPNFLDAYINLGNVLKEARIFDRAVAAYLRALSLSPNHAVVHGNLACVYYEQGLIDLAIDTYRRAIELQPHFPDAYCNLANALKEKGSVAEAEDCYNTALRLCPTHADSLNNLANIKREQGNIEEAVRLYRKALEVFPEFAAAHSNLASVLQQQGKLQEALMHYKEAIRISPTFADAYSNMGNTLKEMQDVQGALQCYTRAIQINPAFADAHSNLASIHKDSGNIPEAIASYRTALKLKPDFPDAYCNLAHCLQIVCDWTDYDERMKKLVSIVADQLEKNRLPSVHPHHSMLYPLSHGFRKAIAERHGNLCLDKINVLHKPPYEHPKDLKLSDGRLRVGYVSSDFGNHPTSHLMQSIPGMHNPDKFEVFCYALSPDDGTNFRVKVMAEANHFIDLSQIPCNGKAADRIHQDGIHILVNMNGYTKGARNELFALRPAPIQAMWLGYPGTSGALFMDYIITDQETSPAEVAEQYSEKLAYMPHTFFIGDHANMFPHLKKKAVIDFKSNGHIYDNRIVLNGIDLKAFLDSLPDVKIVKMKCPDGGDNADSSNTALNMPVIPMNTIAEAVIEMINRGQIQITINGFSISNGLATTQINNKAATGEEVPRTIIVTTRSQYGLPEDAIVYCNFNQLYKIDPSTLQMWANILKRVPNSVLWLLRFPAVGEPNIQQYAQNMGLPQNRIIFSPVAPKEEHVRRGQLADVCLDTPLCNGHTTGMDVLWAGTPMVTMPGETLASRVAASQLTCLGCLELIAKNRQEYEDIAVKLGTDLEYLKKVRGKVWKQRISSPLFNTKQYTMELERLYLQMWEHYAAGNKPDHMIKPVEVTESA
The experiment in a line: Competitive fluorescence polarization. The settings on record: FP competition with 5-FAM-SMG9 for OGT binding, n=3.

For OGT F723E (enzyme), the fold shift of EC50 against WT OGT in experiment [1] was above 10 fold.

For OGT I734R (enzyme), the fold shift of EC50 against WT OGT in experiment [1] is above 10 fold.

OGT N791A (enzyme): the fold shift of EC50 against WT OGT in experiment [1] is above 10 fold.

As for “SMG9 pY147: phosphorylated SMG9 peptide (pY147) (QRPTQPV[pY]QIQNRGMG)”, in experiment [2], the “peptide binding to OGT” value is “disrupted peptide binding, to a similar degree as Y147F”.
